Assay results: patent US20250304707A1 (JOINT STOCK COMPANY BIOCAD, published 2025)
Substitutions are numbered along the chain they refer to. In names and notes the source's numbering stands.

T1: human BCMA on the surface of RPMI8226 cells (human, UniProt Q02223 1-184)
T1 construct: whole, on cells; also called BCMA receptor; RPMI8226 (BCMA+)
T1 sequence (looked up): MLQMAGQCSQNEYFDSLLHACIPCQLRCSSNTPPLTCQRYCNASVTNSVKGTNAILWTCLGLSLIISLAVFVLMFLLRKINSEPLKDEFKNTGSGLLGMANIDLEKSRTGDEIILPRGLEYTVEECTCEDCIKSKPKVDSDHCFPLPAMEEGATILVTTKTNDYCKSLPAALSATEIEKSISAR

T2: human BCMA (soluble analyte of Examples 8 and 14) (human, UniProt Q02223 1-54, limits assumed)
T2 sequence (looked up): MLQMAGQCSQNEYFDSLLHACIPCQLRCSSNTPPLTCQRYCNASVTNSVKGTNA

B1: Antibody 01-033 (antibody, human IgG1, kappa, L234A L235A, V domains shown)
VH: EVQLVQSGGGLVQPGGSLRLSCAASGFTFSSGLMSWVRQAPGGFEWVSGYNGGSDRAGFADSVEGRFTISRDNAKNTLYLQMNSLKPEDTAVYYCARYIANSGTYYWDYWGQGTTVTVSS
VL: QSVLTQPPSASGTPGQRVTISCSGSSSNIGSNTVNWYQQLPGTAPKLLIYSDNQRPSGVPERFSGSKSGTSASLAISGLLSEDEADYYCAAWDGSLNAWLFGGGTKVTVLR
notes: Full-length human IgG1 with L234A/L235A (pEE-HCLALA IgG1 vector) and CK light chain constant domain (pEE-CK), made in CHO-T cells; also called candidate 033
B2: Antibody 01-001 (antibody, human IgG1, kappa, L234A L235A, V domains shown)
VH: EVQLVQSGGGLVQPGGSLRLSCAVSGFTLSSSAMSWVRQAPGKGFEWVSGYNGGSDRAGFADSVEGRFTISRDNAKNTLYLQMNSLKPEDTAVYYCARYIANSGTYYWDYWGQGTLVTVSS
VL: QPVLTQPPSASGTPGQRVTISCSGSSSNIGSNTVNWYQQLPGTAPKLLIYNDSQRPSGVPDQFSGSKSGTSASLAISGLQSDNEADYYCAAWDGSLNVWMFGGGTKVTVLR
notes: Full-length human IgG1 with L234A/L235A (pEE-HCLALA IgG1 vector) and CK light chain constant domain (pEE-CK), made in CHO-T cells; also called candidate 01
B3: Antibody 01-021 (antibody, human IgG1, kappa, L234A L235A, V domains shown)
VH: B2 VH with E1Q, V24A, L29F, S32G, A33L
VL: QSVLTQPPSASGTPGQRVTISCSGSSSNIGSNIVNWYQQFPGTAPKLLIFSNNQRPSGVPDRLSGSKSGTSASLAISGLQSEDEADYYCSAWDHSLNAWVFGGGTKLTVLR
notes: Full-length human IgG1 with L234A/L235A (pEE-HCLALA IgG1 vector) and CK light chain constant domain (pEE-CK), made in CHO-T cells; also called candidate 021
B4: Antibody 01-037 (antibody, human IgG1, kappa, L234A L235A, V domains shown)
VH: B2 VH with P14S, L20V, V24A, L29F, S32G, A33L, F60Y, A61T, E65K, L116T
VL: SYVLTQPPSASGTPGQRVTISCSGTRSNIGTNTVNWYQQLPGTAPKLLIYRNNQRPSGVPDRFSGSKSGTSASLAISGLQSEDEADYYCAVWDDRVSAWLFGGGTKLTVLR
notes: Full-length human IgG1 with L234A/L235A (pEE-HCLALA IgG1 vector) and CK light chain constant domain (pEE-CK), made in CHO-T cells; also called candidate 037
B5: Antibody 01-026 (antibody, human IgG1, kappa, L234A L235A, V domains shown)
VH: B2 VH with P14S, L20V, V24A, L29F, S32G, A33L, F60Y, A61T, E65K, L116T
VL: QSVLTQPPSVSGAPGQRVTISCTGSSSNIGAGYDVHWYQQLPGTAPKLVIYGNTNRPSGVPDRFSGSKSGTSASLAISGLQSEDEADYYCAAWDDSLNGWVFGGGTKLTVLR
notes: Full-length human IgG1 with L234A/L235A (pEE-HCLALA IgG1 vector) and CK light chain constant domain (pEE-CK), made in CHO-T cells; also called candidate 026
B6: Antibody 01-030 (antibody, human IgG1, kappa, L234A L235A, V domains shown)
VH: B2 VH with L20V, V24A, T28S, L29F, S32G, A33L
VL: QSALTQPPSASGTPGQRVTISCSGSISNIGSNTVNWYQHLPGTAPKLLIYNHNQRPSGVPDRFSGSTSGTSASLAISGLQSEDEADYFCATWDDSLSAWLFGGGTKLTVLR
notes: Full-length human IgG1 with L234A/L235A (pEE-HCLALA IgG1 vector) and CK light chain constant domain (pEE-CK), made in CHO-T cells; also called candidate 030
B7: Antibody 01-016 (antibody, human IgG1, kappa, L234A L235A, V domains shown)
VH: B2 VH with L29F, A33V
VL: QPVLTQPPSVSEAPRQRVTISCSGSSSNIGNNAVNWYQQLPGKAPKLLIFKNNQRPSGVPDRFSGSKSGTSASLVISGLQSEDEADYYCAAWDGSLNAWMFGGGTKLTVLR
notes: Full-length human IgG1 with L234A/L235A (pEE-HCLALA IgG1 vector) and CK light chain constant domain (pEE-CK), made in CHO-T cells; also called candidate 016
B8: Antibody 01-027 (antibody, human IgG1, kappa, L234A L235A, V domains shown)
VH: B2 VH with P14S, L20V, V24A, L29F, S32G, A33L, F60Y, A61T, E65K, L116T
VL: QAVLTQPPSASGTPGQRVSISCSGGISNIGSNIVNWYQHLPGTAPKLLIYSGNQRPSGVPDRFSGSKSGTSASLAISGLQSEDEADYYCSSWDSDLRNWVFGGGTKLTVLR
notes: Full-length human IgG1 with L234A/L235A (pEE-HCLALA IgG1 vector) and CK light chain constant domain (pEE-CK), made in CHO-T cells; also called candidate 027
B9: Antibody 01-025 (antibody, human IgG1, kappa, L234A L235A, V domains shown)
VH: B2 VH with P14S, L20V, V24A, L29F, S32G, A33L, F60Y, A61T, E65K, L116T
VL: B7 VL with F50Y, K51S, N52T, V75A, G94D, S95R, L96V, N97S, M100L
notes: Full-length human IgG1 with L234A/L235A (pEE-HCLALA IgG1 vector) and CK light chain constant domain (pEE-CK), made in CHO-T cells; also called candidate 025
B10: Antibody 01-006 (antibody, human IgG1, kappa, L234A L235A, V domains shown)
VH: B2 VH with A23S, V24A, L29F, S32G, A33L, F60Y, A61T, E65K
VL: QAVLTQPPSVSGTPGQRVTISCSGSTSNIGHRTVNWYQQFPGAAPKLLIYRNNQRPSGVPARFSGSKSGTSASLAISGLQSEDEADYHCAAWDDSLTAWVFGGGTQLTVLR
notes: Full-length human IgG1 with L234A/L235A (pEE-HCLALA IgG1 vector) and CK light chain constant domain (pEE-CK), made in CHO-T cells; also called candidate 06
B11: Antibody 01-024 (antibody, human IgG1, kappa, L234A L235A, V domains shown)
VH: EVQLVQSGGGLVQSGGSLRVSCAASGFTFSSGLMSWVRQAPGKGFEWVSCYNGGSDRAGYTDSVKGRFTISRDNAKNTLYLQMNSLKPEDTAVYYCARYIANSGTYYWDYWGQGTTVTVSS
VL: B8 VL
notes: Full-length human IgG1 with L234A/L235A (pEE-HCLALA IgG1 vector) and CK light chain constant domain (pEE-CK), made in CHO-T cells; also called candidate 024
B12: Antibody 01-022 (antibody, human IgG1, kappa, L234A L235A, V domains shown)
VH: B11 VH with C50G
VL: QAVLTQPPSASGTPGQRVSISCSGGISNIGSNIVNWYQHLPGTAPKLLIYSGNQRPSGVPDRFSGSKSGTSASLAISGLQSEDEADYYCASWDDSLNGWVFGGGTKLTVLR
notes: Full-length human IgG1 with L234A/L235A (pEE-HCLALA IgG1 vector) and CK light chain constant domain (pEE-CK), made in CHO-T cells; also called candidate 022

target: T1, human BCMA on the surface of RPMI8226 …; assay: flow cytometry on RPMI8226 (BCMA+) cells, anti-human Fc-PE, one antibody concentration (not given)

| Binder | Fluorescent signal level (sample/background) |
| --- | --- |
| B1 | 14.7 |
| B2 | 10.7 |
| B3 | 9.99 |
| B4 | 11.7 |
| B5 | 12.1 |
| B6 | 16.5 |
| B7 | 7.87 |
| B8 | 19.1 |
| B9 | 15 |
| B10 | 9.61 |
| B11 | 19.9 |
| B12 | 9.57 |

target: T2, human BCMA (soluble analyte of Examples …); assay: BLI competition, APRIL/TNFSF13 (competitor) on AR2G sensors, premix 710 nM antibody + 71 nM human BCMA; without antibody 0.6588 nm

| Binder | Response (premix of antibody and BCMA on APRIL sensors) [nm] |
| --- | --- |
| B1 | -0.0078 |
| B2 | -0.0081 |
| B3 | -0.0015 |
| B4 | 0.0304 |
| B5 | 0.0111 |
| B6 | -0.0066 |
| B7 | -0.0062 |
| B8 | 0.017 |
| B9 | 0.0259 |
| B10 | 0.0464 |
| B11 | 0.0151 |
| B12 | 0.013 |
